According to the supplement of paper PMC9112550, “Optimization of the antimicrobial peptide Bac7 by deep mutational scanning” (BMC Biology, 2022):

System: Escherichia coli TOP10
Assay: shrunken log2 fold change of peptide-encoding DNA abundance (4.5 h post-induction vs induction); higher = less antimicrobial activity (less host growth inhibition)
Settings: time post-induction: 4.5 h; library: site-saturation at positions 5, 18, 19, 20
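Also: peptides expressed intracellularly from a pBAD plasmid library in pooled LB shake-flask culture, induced with 0.3% L-arabinose, DNA abundance read by NGS, three biological replicates, DESeq2 with apeglm shrinkage.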

Sequence	shrunken log2 fold change
RRIRSRPPRLPRPRPRPRSEPRP	0.0656
RRIRFRPPRLPRPRPRPPYTPRP	-0.419
RRIRSRPPRLPRPRPRPPNWPRP	0.504
RRIRTRPPRLPRPRPRPHWCPRP	-0.00994
RRIRVRPPRLPRPRPRPKNHPRP	-0.18
RRIRVRPPRLPRPRPRPCNAPRP	-0.184
RRIRQRPPRLPRPRPRPYEMPRP	-0.153
RRIRHRPPRLPRPRPRPVTQPRP	-0.296
RRIRWRPPRLPRPRPRPAWMPRP	0.139
RRIRWRPPRLPRPRPRPDLFPRP	0.133
RRIRTRPPRLPRPRPRPCVAPRP	0.192
RRIRIRPPRLPRPRPRPDPMPRP	-0.205
RRIRRRPPRLPRPRPRPSFDPRP	0.135
RRIRWRPPRLPRPRPRPSTSPRP	-0.302
RRIRFRPPRLPRPRPRPCDYPRP	-0.112
RRIRRRPPRLPRPRPRPGGEPRP	0.356
RRIRQRPPRLPRPRPRPCARPRP	-0.0014
RRIRYRPPRLPRPRPRPQYFPRP	-1.64
RRIRCRPPRLPRPRPRPHYYPRP	-1.07
RRIRDRPPRLPRPRPRPSHKPRP	-0.373
RRIRMRPPRLPRPRPRPGHYPRP	-0.196
RRIRHRPPRLPRPRPRPYNQPRP	-0.342
RRIRMRPPRLPRPRPRPHHFPRP	-0.00112
RRIRKRPPRLPRPRPRPCRSPRP	-0.0126
RRIRGRPPRLPRPRPRPMWCPRP	0.667

Sequence	shrunken log2 fold change
RRIRCRPPRLPRPRPRPIGAPRP	-0.0968
RRIRQRPPRLPRPRPRPEYCPRP	-0.0411
RRIRARPPRLPRPRPRPTNEPRP	0.344
RRIRVRPPRLPRPRPRPLEIPRP	-0.073
RRIRFRPPRLPRPRPRPHEQPRP	0.0928
RRIRIRPPRLPRPRPRPWIKPRP	-0.0222
RRIRWRPPRLPRPRPRPDNAPRP	-0.000159
RRIRWRPPRLPRPRPRPQICPRP	-0.0447
RRIRFRPPRLPRPRPRPWDAPRP	-0.12
RRIRARPPRLPRPRPRPTEMPRP	-0.00782
RRIRERPPRLPRPRPRPFWHPRP	-0.0333
RRIRPRPPRLPRPRPRPALAPRP	0.412
RRIRIRPPRLPRPRPRPQPQPRP	0.0386
RRIRCRPPRLPRPRPRPFFNPRP	-0.687
RRIRARPPRLPRPRPRPIESPRP	0.0614
RRIRARPPRLPRPRPRPPMFPRP	0.283
RRIRARPPRLPRPRPRPCRYPRP	-0.215
RRIRTRPPRLPRPRPRPHCVPRP	-0.192
RRIRQRPPRLPRPRPRPEWPPRP	-0.0954
RRIRPRPPRLPRPRPRPWPMPRP	-0.151
RRIRRRPPRLPRPRPRPCLVPRP	-0.096
RRIRWRPPRLPRPRPRPFSEPRP	-0.186
RRIRHRPPRLPRPRPRPDPHPRP	0.000754
RRIRSRPPRLPRPRPRPKTCPRP	-0.0741
RRIRMRPPRLPRPRPRPWTMPRP	0.0064

Sequence	shrunken log2 fold change
RRIRARPPRLPRPRPRPFFLPRP	-0.0057
RRIRFRPPRLPRPRPRPAQFPRP	0.156
RRIRYRPPRLPRPRPRPNNGPRP	-0.156
RRIRVRPPRLPRPRPRPYQFPRP	-0.0508
RRIRGRPPRLPRPRPRPQCFPRP	0.352
RRIRMRPPRLPRPRPRPIKMPRP	0.14
RRIRNRPPRLPRPRPRPTNFPRP	0.0354
RRIRQRPPRLPRPRPRPGYNPRP	-0.185
RRIRIRPPRLPRPRPRPQTGPRP	-0.139
RRIRDRPPRLPRPRPRPCVSPRP	0.0278
RRIRVRPPRLPRPRPRPLLHPRP	-0.114
RRIRGRPPRLPRPRPRPVLMPRP	0.316
RRIRWRPPRLPRPRPRPHVMPRP	-0.254
RRIRERPPRLPRPRPRPRTMPRP	-0.135
RRIRERPPRLPRPRPRPCLQPRP	-0.218
RRIRFRPPRLPRPRPRPCECPRP	-0.138
RRIRHRPPRLPRPRPRPLPGPRP	0.103
RRIRWRPPRLPRPRPRPMHWPRP	0.194
RRIRFRPPRLPRPRPRPPNWPRP	0.211
RRIRGRPPRLPRPRPRPCYGPRP	-0.277
RRIRYRPPRLPRPRPRPIMGPRP	-0.0134
RRIRGRPPRLPRPRPRPGLTPRP	1.09
RRIRGRPPRLPRPRPRPWEMPRP	0.0928
RRIRFRPPRLPRPRPRPNQGPRP	-0.197
RRIRRRPPRLPRPRPRPCRHPRP	-0.105
